According to patent US20240376163:

T1: GST-tagged CABIN1-L-1-2
T1 chain: PEITVTPPTP

T2: GST-tagged VIVIT peptide (VIVIT 10-mer)
T2 chain: PVIVITGPHE

T3: GST-tagged VIVIT PPTP
T3 chain: PVIVITPPTP

B1: MKK4 (activated recombinant kinase) (protein)
chain: MAAPSPSGGGGSGGGSGSGTPGPVGSPAPGHPAVSSMQGKRKALKLNFANPPFKSTARFTLNPNPTGVQNPHIERLRTHSIESSGKLKISPEQHWDFTAEDLKDLGEIGRGAYGSVNKMVHKPSGQIMAVKRIRSTVDEKEQKQLLMDLDVVMRSSDCPYIVQFYGALFREGDCWICMELMSTSFDKFYKYVYSVLDDVIPEEILGKITLATVKALNHLKENLKIIHRDIKPSNILLDRSGNIKLCDFGISGQLVDSIAKTRDAGCRPYMAPERIDPSASRQGYDVRSDVWSLGITLYELATGRFPYPKWNSVFDQLTQVVKGDPPQLSNSEEREFSPSFINFVNLCLTKDESKRPKYKELLKHPFILMYEERAVEVACYVCKILDQMPATPSSPMYVD
B2: JNK1 (activated recombinant kinase) (protein)
chain: MSRSKRDNNFYSVEIGDSTFTVLKRYQNLKPIGSGAQGIVCAAYDAILERNVAIKKLSRPFQNQTHAKRAYRELVLMKCVNHKNIIGLLNVFTPQKSLEEFQDVYIVMELMDANLCQVIQMELDHERMSYLLYQMLCGIKHLHSAGIIHRDLKPSNIVVKSDCTLKILDFGLARTAGTSFMMTPYVVTRYYRAPEVILGMGYKENVDLWSVGCIMGEMVCHKILFPGRDYIDQWNKVIEQLGTPCPEFMKKLQPTVRTYVENRPKYAGYSFEKLFPDVLFPADSEHNKLKASQARDLLSKMLVIDASKRISVDEALQHPYINVWYDPSEAEAPPPKIPDKQLDEREHTIEEWKELIYKEVMDLEERTKNGVIRGQPSPLAQVQQ

Legend:
GST-tagged CABIN1-L-1-2 = target: T1, GST-tagged CABIN1-L-1-2
[1] = target: T2, GST-tagged VIVIT peptide (VIVIT 10-mer)
GST-tagged VIVIT PPTP = target: T3, GST-tagged VIVIT PPTP

Protein	in vitro kinase assay (32P incorporation) (GST-tagged CABIN1-L-1-2)	in vitro kinase assay (32P incorporation) [1]	in vitro kinase assay (32P incorporation) (GST-tagged VIVIT PPTP)
B1	the MAPK family (EKR, JNK, and p38) and MKK4 directly phosphorylate CABIN1 peptide	–	–
B2	ERK2, JNK1, and p38a phosphorylate purified recombinant GST-tagged peptide containing PPTP sequence (CABIN1-L-1-2 and VIVIT PPTP), but not GST-tagged VIVIT peptide	but not GST-tagged VIVIT peptide	ERK2, JNK1, and p38a phosphorylate purified recombinant GST-tagged peptide containing PPTP sequence (CABIN1-L-1-2 and VIVIT PPTP), but not GST-tagged VIVIT peptide
